70 sequences from the domain aggregation screens of Martell et al. (2025) can be followed below.
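Further: 20 min heating vs room temperature control held 20 min.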

This data set can be described thus: soluble fraction after stress (log2 fold change); higher = more stays soluble; pooled small domains, quantitative proteomics. The conditions noted are these: stress: 75 degC.
Regarding “HMRAVPTKLAPFVEVLKAMLEADGHRPKAQRRTAKALHLELISRGYAGGYTRLTDYIRDWRQQQG”, the “soluble fraction (log2)” value is -2.36. The value for “HMRDANYFINPIHEWQKRYEALRASFVDRLPAQAVAQRFGYTITYIHLLRHQFKSGKIDFSEPVPEG” was -4.19; that for “HMRDFTQPQTASIGPRMREALARGTMTVEELREQFRTQEFPHESVRTAFLEELERVAAELGLA” was 0.349.

For the sequence “HMRDISTDTSAWTFQDIKRYYDPQDLLTEKQVGQALSLIKGRNLNPLLNEVYIVAYKKKNGGAEFSLIV”, the “soluble fraction (log2)” value was -0.224. Take “HMRDPLNTGFRQTLKDIVNSLPKNELYSPGVREEYIYPKIGVTSLGMEASMVLNGLISSRRKNIELKEKN”: the “soluble fraction (log2)” value turned out to be 0.369. The value for “HMRDPVDKDNYLGDWDKNKTYPAGYVMTFGDKNYLALQEVPAGTKPGATDPDPFWVLDTGKTLKD” was -0.14; that for “HMRDQARQFFIDTWAKFQRHDALTPLEEKTAAIIALHPEYHRVLQNPESFITTDWRPESGDINPFMHL” was -2.02; that for “HMRDSYEVEGRIASVSPAAGTFVVAGVTVDYTGARFVGGTVAQLAPGVKVEVEGRRLANGTLQAREIEFD” was -0.142.

For the sequence “HMRDSYTFEDIEKLKDSYLQDSEKALEKLISIYEDTNQSLAIRTAALDIITDSQDPTFKLALEKIIS”, the “soluble fraction (log2)” value was -0.177. With “HMRDTAKTLLAMEVVGENNKKNLQAFGIQKGDQNYQTAVVVRLMQKALMEGDTSAIRLIGELTGD”, the “soluble fraction (log2)” value was -0.0652. In the case of “HMRDTLSKQLLTEEMVLQFIREMREHDPGIGGEKLHAMYLGRFGRDYEYMVGRDKMEMIIAENNLNVR” it was -0.996. As for “HMRDYDFGNLLYKLRIESGYTQKDIADMLGVTDKAVSKWENGIAKPTTNNIKLLSTIYNVSVEELLNG”, the “soluble fraction (log2)” value is -1.19.

Turning to “HMRDYKTALQEWVQRTPGQPIAYRLVDELGPDHARVFVMEVTVGGQSAGQGRGRTKKEAEQLAARAALEKL”, the “soluble fraction (log2)” value is -0.448. For the sequence “HMREEIESVYKTLAVTEIPYIARGNSARLGSGIQTVYDFYRMEGMQVSKILGRNGSVLWLELHG”, the “soluble fraction (log2)” value was 0.0223.

In the case of “HMREEMYGLIGFITTSEVTDTFGQMEIKLENEPEMRINVRTNPGESLARGDAAKIISFNNSNGTFLVELTK”, the “soluble fraction (log2)” value was -0.921. In the case of “HMREFQVMKQELQEMVHQRLDMSTELSDEAIGDVIDEVIMEKSRNMYISSVTKLTLRQELFNAIR” it was -1.68.

For “HMREGRERRLSQLLSYLRTHHILTRSEYVKLTGLSPTAASSELKTFVTAGHIVRKGIASHSTYRLPH”, the “soluble fraction (log2)” value was -1.91. In the case of “HMREKLKEYVHLLFAGTVGKEDMEQEILQNTLDRFDDWVARGFSEEDAYRKAVSGIGDIDALLG” it was -0.0221. The value for “HMREPDPELTASIKSMAESNDQSERLVALAQLSEQRAVDPEVADQILLIALLDEDPIIRGQAVYA” was 0.274; that for “HMRERLPFGFAQSKKVVLLSTESDTPKVLSVNWPSLDLYAELKRVIGRAFLLEIVSEEEFQAQVSDAYQRD” was -2.47. For “HMREVGVPNLRGLTAEEAQIVLSNAGLNLRTEPIRRVHETITVGRIAEQDPMPDLTIRSQRSVTTWLSSGP”, the “soluble fraction (log2)” value is 0.328. The value for “HMREVTVGSAVRLKKGAKTYSGGSLASFVYERNHQVTQLSGDRAVISFKGTVVAAVHKDDLIL” was -1.06; that for “HMREVVLNRIGSVAVQRATTRTWEEWVVTLDAEGMRGKEHRDVVGHLLRAHELTSWWAQMVSVGYEQSRGQ” was -0.18.

For “HMREYRITAEEGHPRIDVFLAGRPEIGLSRSRIQALIDEGQVTLNGAMPKARQAVNPGDVIVVRVPDPE”, the “soluble fraction (log2)” value stood at 0.0963.

For the sequence “HMRFEWFDTLTDREKEIFGLIATGFDNQQIADRLQLAEQTVRNNISTIYSKLEVKDRFEIIRLANTI”, the “soluble fraction (log2)” value was -1.35. For “HMRFKPLAEILAAVQTRYAGRVLDVELDRDQAGRNVYEVKLLAADGSRREIHIDAVTGKEVSL”, the “soluble fraction (log2)” value is -0.56.

On to “HMRGAIKMAEEQMAGHKKIGSISGTAPTQGELEKKFAMAAAQMGARYYVITGLSNNNYAFGNADIY”, for which the “soluble fraction (log2)” value was -0.669.

With “HMRGDEDTGVWPTPMKRAYIDSLLKGYPTGVTMIVKPPGASHTTKWMILDGANRARALRDFMNDEFMI”, the “soluble fraction (log2)” value was -0.0871. The value for “HMRGFTDFEHIEKEYLATIEKLNWPDGVTLPDKLEGEDTGTSFQVGYGDTRASNLWEYSWMK” was -0.163; that for “HMRGIPEEVADVAIQWVARLDSNEISDADRAAFFAWLDASPINRWAYNDISESWAKLSILNEMGH” was -1.87; that for “HMRGLFTVYMVGEKASRVGELDEEMVYESRIGDVFALGATSWRIEEITHDRVLVSPAYGQPGRLPFWH” was -2.13.

“HMRGLGDLEPVDSLGKIRIDDGHMVLAFGRHKGRHLSEVQAEDPRYIHWLLSPKGIEDVEAREKVKVYLEG”: the “soluble fraction (log2)” value worked out at 0.0762. In the case of “HMRGLLSQREHDVLDLVARGFSYGEIARLRSISVSTVQTHIKNLYRKLAVSSRTEAVYEAKQMGI” it was -1.63. The value for “HMRGLVPEIVGTLEGEIRAGTLAVGQKLPTEAEIMARFDVSRTVVREALSRLQASDLVETRHGIGTFVSAR” was -0.647; that for “HMRGPDLSKDFHEYISSQWMFFGRNAYQIAEQINKDTQLMSKYGKTTPSGVHYHIKQIQQEMEN” was -0.785. For the sequence “HMRGPPQVLVDVELEDGRVGQIGVRNGDDATELAETFVRAFRLEQSFVGRLANVIQGKIRELLHSQ”, the “soluble fraction (log2)” value is -1.74. Take “HMRGSRIFSGDVSPLTLPANSPFFSGYTEFKPGDVYVERSATNIAMWEWKSQPGGYTWVKTADIA”: the “soluble fraction (log2)” value is -1.27. In the case of “HMRGYGDRIRILRERAGITIEQLAERLGVAPYFIRRTELSEVYPTKPYIEALADVLNIDASYLARHI” it was -2.46; in that of “HMRHYVLKENNGVIAIYKVNQENEAVFKENTQIQVQYLPEVDLINLKKGIYAIGEEKLNSILEDF”, -0.667. In the case of “HMRIDSFEDARRRFEYDYLTRLLKLTQGSVTQAAKLAKRNRTEFYKLLQRHGIEAAHFKPTS” it was -1.53; in that of “HMRIDVWLAENGFAPSRQKAQDLIAAGRVFQTDPSGRRQKVSKASAAVDPALSPKIEVIPDPE”, -0.0608; in that of “HMRILGIDPGYAITGYSIIDYVGNKFKLIDSGAVLTKAGVSFPLRLTKIYDDLSMIIDEYKPDA”, 0.0296. As for “HMRIPANIAEDIKKLQKKEHHLHHHLGRDPFDDELAKELEWDTEQVSEIRQMIKNPELLEELLEAEREEE”, the “soluble fraction (log2)” value was 0.0316. For “HMRITEQRRTLAKLFADTPGYLSPKDVYDYMGRFYPGLSFDTVYRNLRLLDELGVLEQVVFEDGVKFK”, the “soluble fraction (log2)” value was -0.847. The value for “HMRIWTISDLYKNVEDKKVSLAVFSEDNDSNKVNVLDINGEEHSVNLLKADLPTLVDLFRKNDVRFAVRSN” was -0.116. The value for “HMRIWTPEMIKEYIISSNGKEPLNSHYYSTNHPSIYAAAERIFGSWGNAINAAGLDYNAIRKYK” was -0.488. With “HMRIYFSPSEIGFYHESDKQAYLLAGTWPNDLLEISEKWFLYLLEGQQKGKVITVNDYDQPVLVD”, the “soluble fraction (log2)” value was -2.9. In the case of “HMRIYTKDEYLAELSRYLHKLPQDDYESAMAYFREYFEEAGPENEAQAMRDLGTPKEAASEILQNLLH” it was -0.401; in that of “HMRKDYTVLYSAVNAEEATEIVSKLQESGVAYQYKDNGDVLVDKKQVDKVRAQLAQEGYPKS”, 0.0467; in that of “HMRKIEDVLRLHAQGMSTRRIALATGVGKTTVIEYLRRAAVAGLSWPLPEGLDEEALERRVFPPPP”, -2.59. For “HMRKIFPFNPNFITDQRGYFLGMSTSEIDRLHHFRAANKWIQSAQEFQVVTKVSNAWLSEFSPYFNFP”, the “soluble fraction (log2)” value is -3.87. The value for “HMRKKTYEIITDDLRRMIEAGLIRPGEKLGAIDQLAAKYRVGRSTVREALSHLKALGLVESRQGGGTYVTK” was 0.375. The value for “HMRKNVAGITPNVYGMGLKDAVYLLENAGYRVKVNGRGNVVRQSINSGTRIIKGQLIILDLD” was -3.62. The value for “HMRKSNADALDGKTGIVKEEIKTGGYGYVGIDGDMWRSISESGEAIPAGTKVVVISHESIILTVKPA” was -2.23; that for “HMRKTLASTAYDSIKAGIVSGEINNNLLLSENTLAKILNMSRTPIREAIKRLEAESYLKSVDGVGLIVQE” was -0.43; that for “HMRKTLSQEAYEKIKQNLEDGVYQGYINGRQVARDLDIGFTPVREAFLQLQSEGLIRKEDNVGYFV” was -0.107. Turning to “HMRKTYHVDAYQDDKWWVLQVQEMPNAISQVKSLDQADEWIREAINIVSNEPEDSFDVVIIPV”, the “soluble fraction (log2)” value is -0.404.

For “HMRKVTDTHELSSVVKSVIDQWEEKAAEYRAGKSGLLGFFVGEVMKKTGGAADPEAAKSLLQDRLD”, the “soluble fraction (log2)” value was found to be 0.0219. In the case of “HMRKYEAVPASVVPAQIQEYVAKSNFPNQYIRKIERNKYTWEIELSNGLEIKFDRQFNVIGFD” it was -2.59. In the case of “HMRLGQLQSVEEPKFIEVHSGKQGDIGEQTIVEYEIDAKYATGDATINLKLLFRDGLFEIYNFNFSSEALL” it was 0.133; in that of “HMRLNIRTKNNYSYYTIIKDYTNLNGKRTTTIFEKLGNQQQVEERFGKVNTIENIKKYIEELNNE”, -1.65; in that of “HMRLPAISYSFARKHGVVLRLDGDRPVASLREGADPAILIEVKRHLDGAMGVEKVSEAAFDQLLSTTYA”, -1.53.

As for “HMRLPNGYGSITKLSGKRRKPFMVRITTGYDNEGKQLMSVLGYYATRTEALAVLAEYNKNPYNPI”, the “soluble fraction (log2)” value was -3.36. In the case of “HMRLPNHYGSVVKLSGKRRRPFMVRGGVYGYDDRGYPQYVIVGYTETREQGLTMLAEYNRNP” it was -3.17; in that of “HMRLPVELTDREVEVLRLLAQAMSNGEIARELYIGEATVKTHVSNVLQKLGARDRVAAVVWAHRYGL”, -2.08; in that of “HMRLSAADLQSYLKGMDYPASRQDLIAHARGHNAPEEAVATLEQFSDRTYRSAADVSVEFGRE”, 0.254. The value for “HMRLSPTMVETLIAMLNRNAYPAYENNSRTFASLEERGLIQPDIEGNWSLTDTGHQTALKLLK” was 0.463. As to “HMRLSVRQRMSDVLGALKTQAFVEFTQLFRPQEGRMGVTVTFSAILELLREGLIEIVQSEPFAPIHVRAGA”, the “soluble fraction (log2)” value stood at 0.183.

“HMRMDKHLWLSLLRLINEGSAEELQTKKDELLQSLERLRITRGPVRGDVLRVVRLIDEELVSRLHLDQR”: the “soluble fraction (log2)” value was -2.58.

Turning to “HMRMTKPLPFDLAAFRNEFGFTKSIIMQEVGVSRHIYDNVERTNATPPEFYDDFVSFFQRHGQ”, the “soluble fraction (log2)” value is -1.88.
